The values below come from publication PMC7864943, “Structural elements in the flexible tail of the co-chaperone p23 coordinate client binding and progression of the Hsp90 chaperone cycle” (Nature Communications, 2021).

Common to all, as to settings: both partners purified
The target in test [1] is T1, yeast Hsp90 (Hsp82), full length (yeast, UniProt P02829 1-709).
T1 construct: Hsp90 (Hsp82), yeast, full-length protein; Isotope-labelled (methyl-labelled, deuterated) in some NMR experiments; also called Hsp90 FL; Hsp90 dimer
The test can be described thus: ITC; 20 µM Hsp90 in the cell, p23^WT (135 µM) or mutants (up to 360 µM) in the syringe; 2 mM AMP-PNP; 40 mM Hepes, 150 mM KCl, 5 mM MgCl2, 1 mM DTT, pH 7.5; 30 °C.

For test [2], the target named is T1, yeast Hsp90 (Hsp82), full length. The experiment in a line: ATPase inhibition assay; apparent Ki; ATP-regenerating system, 30 °C; 3 µM yeast Hsp90 (Hsp82) with rising concentrations of p23 or mutants; 40 mM Hepes, 150 mM KCl, 5 mM MgCl2, 1 mM DTT, pH 7.5; 2 mM ATP.
Test [3] deals with T2, human Hsp90β, full length (human, UniProt P08238 1-724).
T2 construct: also called Hsp90 FL (human); source: E. coli BL-21 DE3, purified (the methods speak of Hsp90 and p23 in general)
The experiment in a line: NMR titration; 1H-15N HSQC of 15N-labeled p23 with unlabeled full-length Hsp90/AMP-PNP or GR-LBDm alone; peak intensity ratios; 25 mM Tris, 200 mM NaCl, 5 mM DTT, 0.5 mM dexamethasone, pH 7; 30 °C.

T1 sequence (P02829 whole entry): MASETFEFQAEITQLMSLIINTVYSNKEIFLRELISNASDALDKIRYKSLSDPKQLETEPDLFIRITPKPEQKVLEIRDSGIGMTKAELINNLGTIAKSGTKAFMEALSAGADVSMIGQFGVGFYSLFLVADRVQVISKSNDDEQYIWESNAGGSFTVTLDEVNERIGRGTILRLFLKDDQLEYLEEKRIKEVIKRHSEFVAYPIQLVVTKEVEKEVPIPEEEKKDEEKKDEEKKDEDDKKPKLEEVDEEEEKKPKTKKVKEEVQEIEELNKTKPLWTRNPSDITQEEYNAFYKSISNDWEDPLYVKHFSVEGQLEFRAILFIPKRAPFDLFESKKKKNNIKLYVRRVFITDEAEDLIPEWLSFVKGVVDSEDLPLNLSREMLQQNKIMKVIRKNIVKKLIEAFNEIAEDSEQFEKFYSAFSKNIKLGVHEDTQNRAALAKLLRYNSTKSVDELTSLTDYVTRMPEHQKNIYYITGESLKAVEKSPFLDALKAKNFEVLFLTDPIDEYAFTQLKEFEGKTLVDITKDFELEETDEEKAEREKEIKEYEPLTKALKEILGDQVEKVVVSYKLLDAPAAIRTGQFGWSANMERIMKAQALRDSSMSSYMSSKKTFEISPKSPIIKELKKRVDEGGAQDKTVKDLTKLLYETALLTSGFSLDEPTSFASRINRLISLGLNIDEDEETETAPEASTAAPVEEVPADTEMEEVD
T2 sequence (P08238 whole entry): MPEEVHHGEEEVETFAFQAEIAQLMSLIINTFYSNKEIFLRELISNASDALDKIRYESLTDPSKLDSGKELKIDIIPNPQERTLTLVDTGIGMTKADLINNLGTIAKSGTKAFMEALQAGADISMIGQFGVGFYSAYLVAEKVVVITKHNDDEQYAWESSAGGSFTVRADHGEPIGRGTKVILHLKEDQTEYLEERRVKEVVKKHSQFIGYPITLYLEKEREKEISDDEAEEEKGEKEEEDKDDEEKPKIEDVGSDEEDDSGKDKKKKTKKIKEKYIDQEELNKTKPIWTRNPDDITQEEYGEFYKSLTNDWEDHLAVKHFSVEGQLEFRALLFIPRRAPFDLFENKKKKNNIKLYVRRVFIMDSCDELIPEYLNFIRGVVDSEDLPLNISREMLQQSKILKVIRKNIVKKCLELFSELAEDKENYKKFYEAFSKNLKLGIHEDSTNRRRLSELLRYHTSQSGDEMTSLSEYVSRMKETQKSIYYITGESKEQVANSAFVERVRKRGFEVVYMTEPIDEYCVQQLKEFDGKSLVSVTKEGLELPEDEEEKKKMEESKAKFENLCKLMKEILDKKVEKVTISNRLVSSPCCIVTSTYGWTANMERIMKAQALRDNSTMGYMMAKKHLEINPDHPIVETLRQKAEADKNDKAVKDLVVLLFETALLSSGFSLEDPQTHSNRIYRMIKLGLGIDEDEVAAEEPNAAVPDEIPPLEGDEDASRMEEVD

B1: yeast p23^W124A (natural protein, UniProt P28707 1-216, looked up)
chain: MSDKVINPQVAWAQRSSTTDPERNYVLITVSIADCDAPELTIKPSYIELKAQSKPHVGDENVHHYQLHIDLYKEIIPEKTMHKVANGQHYFLKLYKKDLESEYWPRLTKEKVKYPYIKTDFDKAVDEDEQDEVEAEGNDAAQGMDFSQMMGGAGGAGGAGGMDFSQMMGGAGGAGSPDMAQLQQLLAQSGGNLDMGDFKENDEEDEEEEIEPEVKA
notes: p23/Sba1, yeast, point mutant of the wild type (aa 1-216); source: E. coli BL-21 DE3, purified
In test [1], B1 had a Kd of 1300 nM. In addition, the Ki in test [2] amounted to 2600 nM.

B2: yeast p23^Δ88 (domain or fragment, UniProt P28707 1-128, looked up)
chain: MSDKVINPQVAWAQRSSTTDPERNYVLITVSIADCDAPELTIKPSYIELKAQSKPHVGDENVHHYQLHIDLYKEIIPEKTMHKVANGQHYFLKLYKKDLESEYWPRLTKEKVKYPYIKTDFDKWVDED
notes: p23/Sba1, yeast, C-terminal deletion mutant Δ88; source: E. coli BL-21 DE3, purified
As for B2, in test [1], the affinity, expressed as Kd, was 2300 nM. The Ki in test [2] is 2200 nM.

B3: human p23 (natural protein, UniProt Q15185 1-160, looked up)
chain: MQPASAKWYDRRDYVFIEFCVEDSKDVNVNFEKSKLTFSCLGGSDNFKHLNEIDLFHCIDPNDSKHKRTDRSILCCLRKGESGQSWPRLTKERAKLNWLSVDFNNWKDWEDDSDEDMSNFDRFSEMMNNMGGDEDVDLPEVDGADDDSQDSDDEKMPDLE
notes: p23, human; helical stretch at residues 117-127 of the tail; 15N-labelled; also called p23 (human); source: E. coli BL-21 DE3, purified (the methods speak of Hsp90 and p23 in general)
B3: the binding result in test [3] was “binds”.

B4: yeast p23^Δ91 (domain or fragment, UniProt P28707 1-125, looked up)
chain: MSDKVINPQVAWAQRSSTTDPERNYVLITVSIADCDAPELTIKPSYIELKAQSKPHVGDENVHHYQLHIDLYKEIIPEKTMHKVANGQHYFLKLYKKDLESEYWPRLTKEKVKYPYIKTDFDKWV
notes: p23/Sba1, yeast, C-terminal deletion mutant Δ91; source: E. coli BL-21 DE3, purified
Take B4: in test [2], the Ki is 10800 nM.
